Positions count from the first letter of the chain named.

To fix the notation:
B1: monoclonal antibody 40H3 (antibody, V domains shown)
VH: QVQLKQSGPGLVQPSQSLSITCTVSGFSLTNYGIHWLRQSPGKGLEWLGMMWRGGGTDYNAAFISRLTITKDTSKSQVFFRMNNLQTNDTAIYYCARKGVGMGLGYWGQGTSVTVSS
VL: DIQMTQSPASQSASLGESVTITCLASQTIGTWVAWYQQKPGRSPQLLIYGATNLADGVPSRFSGSGSGTKFSFKISSLQAEDFVSYYCQQLYSNPYTFGGGTKLEIK
B2: monoclonal antibody 11G3 (antibody, V domains shown)
VH: QVQLKQSGPSLVQPSQSLSITCTVSGFSLTNYGVHWVRQSPGKGLEWLGVMWRGGRTDYNAAFMSRLSITKDNSRSQVFFKMNSLQTDDAAIYYCAKNGPFGNFAGYWGQGTLVTVST
VL: DIVMSQSPSSLPVSVGEKVSLTCKSSRSLLDNQKHYLAWYQQKPGQSPKLLIYWASTRESGVPDRFTGSGSGTEFTLTISSVKAEDLAVYYCQQFYNYPYTFGGGTKLEIK
B3: monoclonal antibody 3D10 (antibody, V domains shown)
VH: QVQLKQSGPGLVQPSQSLSIICTVSGFSLTRNGVHWVRQSPGKGLEWVGVIWRSGRTDYDAAFMSRLSITKDNSKSQVFFKMNSLQADDTAIYYCVKNGDDGNYGTYWGQGTLVTVSA
VL: DIVMSQSPSSLGVSVGEKVTMSCKSSQSLLDSRNQKNYLAWYQQKPGQSPKLLIYWASTRESGVPDRFTGSGSGTEFTLTISSVKAEDLAIYYCQQYYNYPYTFGGGTKLEIT
B4: monoclonal antibody 9G11 (antibody, V domains shown)
VH: B3 VH with I21T, S54G
VL: B3 VL
B5: monoclonal antibody 1D9 (antibody, V domains shown)
VH: QVQLKQSGRSLVQPSQSLSITCTVSGFSLTDYGVHWIRQSPGKGLEWLGVIWRSGRTDYNAVFMSRLSITKDNSKSQVFFKMNGLQTDDTAIYYCAKNGPFGNFAGYWGQGTPVAVSA
VL: DIVMSQSPSSLAVSVGEKVTMRCRSSQSLLDSYHQKNYLAWYLQKPGQSPKLLIYWASTRESGVPDRFTGSGSGTDFTLTISSVKAEDLAVYYCQEYYRYPYTFGGGTKLEIK
B6: monoclonal antibody 4A4 (antibody, V domains shown)
VH: B5 VH with Q86L, T87I, D88E
VL: B5 VL with V91A
B7: monoclonal antibody 11E11 (antibody, V domains shown)
VH: B2 VH with V37I, M51K, K71R, A90T, T118A
VL: B2 VL with P12A, R27Q

The first test deals with human wtEGFR on F98_(EGFR) cells (human) (UniProt P00533). Nature of the test: […], FACS buffer.
As to B1, the median fluorescence intensity came to 187 units.

The next test concerns the target wtEGFR at physiological levels on WI-38 cells (human (endogenous in WI-38)) (UniProt P00533). Nature of the test: […], FACS buffer.
Regarding B2, the median fluorescence intensity was < 100 units.
On the same count and under the same terms, next, B3: < 100 units; B4: < 100 units; B5: < 100 units.
In the case of B6, the median fluorescence intensity was < 100 units.
On to B7, for which the median fluorescence intensity was < 100 units.
On to B1, for which the median fluorescence intensity is < 100 units.

The record behind these values is article PMC6947844.
